In patent US20100285583A1, “COMPOUNDS AND METHODS FOR INHIBITING PLATELET AGGREGATION” (priority 2009, published 2010):

Tests used:
[1] = CD spectroscopy, secondary structure composition; assay type: physicochemical; conditions: 5 μM construct, DICHROWEB/CDSSTR
Protocol: Spectra were collected using a Jasco J-720 spectropolarimeter. Far-UV CD spectra were measured for Dab2 PTB constructs (5 μM in 5 mM Tris, 100 mM potassium fluoride, 100 μM DTT, pH 6.8) using a 1 mm-slit-width cuvette. Five accumulated scans were recorded for each sample between 190 and 260 nm at 20° C. in increments of 0.5 nm. Background of buffer alone was subtracted from each spectrum. Raw data were converted to mean residue ellipticity and analyzed for secondary structure composition using DICHROWEB and deconvoluted using CDSSTR.

[2] = system: platelet and leukocyte mixtures; test: Platelet-leukocyte aggregation under flow; assay type: cell-based, human; conditions: 10 μM, with sulfatide liposomes
Protocol: The microfluidic device consisted in a simple straight channel 500 μm wide, 50 μm deep and 3.62 cm long. A silicon master stamp was fabricated on a <100> silicon substrate following a previously described process (Ross et al. Ann. Rev. Med. 1987, 38:71-79). Flow was driven using a micro-syringe pump (Cole-Parmer) with a 1 mL syringe connected to the channel inlet by 30 cm of Cole-Parmer gauge 20 Teflon tubing. After priming the system with the sample, the pump was set to 0.05 mL/h (equivalent to an average velocity of 0.55 mm/sec in the channel), which is in the range of in vivo blood velocity (0.1-1.5 mm/sec (9)) and causes a shear rate of 70 sec−1. This flow rate was maintained for 1 min prior to the experiments. Platelets flowing through the channel were monitored using an inverted light microscope (DMI 6000B, Leica Microsystems) equipped with a digital camera (DFC420, Leica Microsystems).
To quantify the ability of N-PTB to block platelet-leukocyte binding under physiological flow conditions, platelet and leukocyte mixtures were flown through a microfluidics device, as described above, and aggregation was measured using light microscopy. Untreated cell suspensions ([…]) were flown for 10 minutes and the channel was scanned for leukocyte adhesion and inclusion into platelet aggregates and representative pictures were taken (FIG. 18A-B).

[3] = Competition SPR, PtdIns(4,5)P2 pre-incubated protein on sulfatide liposomes; conditions: 5 μM protein pre-incubated with increasing PtdIns(4,5)P2; read-out: IC50 of PtdIns(4,5)P2 competition for sulfatide binding
Protocol: Surface plasmon resonance (SPR) binding experiments were performed on a BIAcore X instrument using L1 sensorchips coated with ˜0.5 mM of mixed sulfatides or PtdIns(4,5)P2 size calibrated liposomes. N-PTB domain or its mutants binding experiments were performed in a degassed solution containing 10 mM Tris-HCI (pH 7.4) and 150 mM NaCl. This buffer was used during equilibration, association and dissociation phases. Proteins were added to this buffer at the indicated concentrations. Regeneration of the phospholipid bilayer after dissociation phase was carried out using 20 mM NaOH. For competition SPR, increasing molar amounts of dioctanoyl PtdIns(4,5)P2 were preincubated with 5 μM N-PTB for 20 min at room temperature. The entire reaction was then exposed to an L1 sensorchip containing immobilized sulfatide liposomes (˜0.5 mM).

[4] = Liposome-binding assay, sulfatide liposomes; conditions: liposomes with sulfatides
Protocol: (§1) Lipid stocks including sulfatides, PE, PS, and PtdIns(4,5)P2 were dissolved in chloroform:methanol:water (1:2;0.8, 65:35:8, 65:35:4 and 65:35:8, respectively), whereas cholesterol and PC were dissolved in chloroform:methanol (1:1). Sulfatides liposomes were prepared in a weight ratio of 1:1:1:4 of PC:PE:cholesterol:sulfatides. PtdIns(4,5)P2 liposomes were prepared in a percent ratio of 50:20:10:10:10 of PC:PE:PS:cholesterol:PtdIns(4,5)P2. Controls were prepared by adjusting the ratios with PC. Lipid films were generated by lyophilization overnight and hydrated in 20 mM Tris-HCl (pH 6.8), 100 mM NaCl, 2 mM dithiothreitol (DTT) at 1 mg/mL and freeze-thawed 3 times. Liposomes were sonicated and further pelleted and suspended in 4 mg/mL. Ten μg of protein were incubated with 125 μg of total lipids for 20 min at RT. Liposome-bound and free-protein samples were separated by centrifugation and analyzed by SDS-PAGE. Bands were quantified using AlphaImager, and the percentage of total protein each fraction contained was calculated from the total protein.

[5] = Liposome-binding assay, PtdIns(4,5)P2 liposomes; conditions: liposomes with PtdIns(4,5)P2
Protocol: as §1

[6] = system: platelet and leukocyte mixtures; test: Platelet-leukocyte aggregation assay (flow cytometry, CD42b on leukocytes); assay type: cell-based, human; conditions: ADP 30 μM, sulfatide liposomes
Protocol: Whole blood was collected as indicated above and centrifuged at 200 g to separate the blood from plasma and red blood cell fractions. Plasma and buffy coat layer were carefully removed and diluted 1:1 with PBS. The dilution was then layered onto a Ficoll Plus gradient and spun at 200 g for 20 min. The enriched platelet and leukocyte layer was removed, diluted with PBS, centrifuged and the pellet resuspended in Tyrode's Albumin buffer to a concentration of ˜3×10^5 platelets/μL and 3×10^3 leukocytes/μL. Isolated platelet-leukocyte mixtures were remained unactivated or activated with ADP (30 μM). Both unactivated and activated platelets were incubated for 10 min at 23° C. with liposomes (50 μg/mL) either without (liposomes control) or with sulfatides, and N-PTB constructs (1 μM). Reactions were fixed with 1% formalin and incubated with APC-labeled CD42b (Biolegend) and FITC-labeled CD45 (Biolegend) antibodies. Bound antibodies were quantified using a FacsAria flow cytometer.
Platelet P-selectin mediates platelet-leukocyte interactions through binding of leukocyte PSGL-1 (Merten 2005). […] Platelet binding of leukocytes was quantified through the fluorescence of allophycocyanin (APC) labeled anti-human CD42b (platelet marker) detected on leukocytes. The fluorescence was detected using flow cytometry analysis of platelet-leukocyte mixtures.

B1: N-PTB: N-terminal phosphotyrosine binding domain (residues 1-241) of human Disabled-2 (Dab2), expressed as GST-fusion in E. coli (protein)
chain: MSNEVETSATNGQPDQQAAPKAPSKKEKKKGPEKTDEYLLARFKGDGVKYKAKLIGIDDVPDARGDKMSQDSMMKLKGMAARGRSQGQHKQRIWVNISLSGIKIIDEKTGVIEHEHPVNKISFIARDVTDNRAFGYVCGGEGQHQFFAIKTGQQAEPLVVDLKDLFQVIYNVKKKEEEKKKIEEASKAVENGSEALMILDDQTNKLKSGVDQMDLFGDMSTPPDLNSPTESKDILLVDLNS
- Helix 1 [1]: 8%
- Helix 2 [1]: 10%
- Strand 1 [1]: 17%
- Strand 2 [1]: 10%
- Turns [1]: 23%
- Unordered [1]: 31%
- effect on leukocyte adhesion and platelet-leukocyte aggregates under flow [2]: great reduction in observed leukocyte adhesion as well as platelet-leukocyte aggregates
- effect on leukocyte adhesion and platelet-leukocyte aggregates under flow ([2]; listed as N-PTB^4M): unable to affect the adhesion and aggregation of leukocytes
- IC50 [3]: ~2 µM
- sulfatide binding [4]: bound to sulfatide-enriched liposomes
- PtdIns(4,5)P2 binding [5]: bound to PtdIns(4,5)P2-containing liposomes
- inhibition of platelet-leukocyte binding [6]: decreased platelet binding to leukocytes
- inhibition of platelet-leukocyte binding ([6]; listed as N-PTB^4M): no inhibition of platelet-leukocyte binding
